Reference: article PMC7660256

Target: T1, PdhR (Escherichia coli K-12 W3110) (UniProt P0ACL9)
T1 sequence: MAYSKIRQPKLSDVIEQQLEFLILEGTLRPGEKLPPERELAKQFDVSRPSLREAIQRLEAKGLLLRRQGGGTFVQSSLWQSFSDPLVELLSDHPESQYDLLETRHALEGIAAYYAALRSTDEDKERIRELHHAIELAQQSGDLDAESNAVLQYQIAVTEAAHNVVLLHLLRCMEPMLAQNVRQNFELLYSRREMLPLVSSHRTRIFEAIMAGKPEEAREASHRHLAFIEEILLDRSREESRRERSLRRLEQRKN
Assay: EMSA
Conditions: Gel shift buffer (composition not given), 37 °C, 30 min; 0.2 pmol probe, 0-10 pmol PdhR; GelRed stain. gSELEX: 10 mM Tris-HCl pH 7.8 (4 °C), 3 mM Mg acetate …

CTCTATATCACTCTCACAAATTCGCTCAAATAATAAACAATAAACTCTGTTTTTTGATCTCACCCGGTAAAGTCGCCTATCTTTTCAGCAACAAAACTTGATTAACATCAATTTTGGTATGACCAATGCACCATTCATGTTATTCTCAATAGCGAAGAACATTTTCATTGCTGTAACCTGTTGTTAATTAAGAGCTATGTTAATAACCATTAATTAACAATTGGTTAATAAATTTAAGGGGGTCACG (double strand) [ndh probe]
binding: binds
